Test results published in paper PMC10397247.

T1: 4H2610-bN
T1 chain: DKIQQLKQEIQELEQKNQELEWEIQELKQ

T2: 4H2667-bN
T2 chain: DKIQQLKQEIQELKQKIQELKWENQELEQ

T3: 4H2697-bN
T3 chain: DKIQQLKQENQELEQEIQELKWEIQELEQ

T4: 4H3189-bN
T4 chain: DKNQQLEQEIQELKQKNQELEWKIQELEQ

T5: 4H331-bN
T5 chain: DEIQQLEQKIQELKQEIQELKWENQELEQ

T6: 4H3606-bN
T6 chain: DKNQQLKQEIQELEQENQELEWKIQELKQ

T7: 4H370-bN
T7 chain: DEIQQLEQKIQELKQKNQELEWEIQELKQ

T8: 4H3782-bN
T8 chain: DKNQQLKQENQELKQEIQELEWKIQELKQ

T9: 4H3843-bN
T9 chain: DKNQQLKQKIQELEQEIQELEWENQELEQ

T10: 4H4001-bN
T10 chain: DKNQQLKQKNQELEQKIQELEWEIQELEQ

T11: 4H462-bN
T11 chain: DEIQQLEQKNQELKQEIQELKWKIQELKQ

T12: 4H568-bN
T12 chain: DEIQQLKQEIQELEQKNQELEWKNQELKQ

T13: 4H607-bN
T13 chain: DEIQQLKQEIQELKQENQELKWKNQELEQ

T14: 4H687-bN
T14 chain: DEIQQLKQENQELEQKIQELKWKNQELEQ

T15: 4H72-bN
T15 chain: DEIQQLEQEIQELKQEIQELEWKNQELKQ

T16: 4H797-bN
T16 chain: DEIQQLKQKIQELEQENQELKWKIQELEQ

T17: 4H883-bA
T17 chain: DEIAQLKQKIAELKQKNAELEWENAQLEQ

T18: 4H883-bN
T18 chain: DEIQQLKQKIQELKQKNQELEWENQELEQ

T19: 4H918-bN
T19 chain: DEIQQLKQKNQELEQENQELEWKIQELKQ

T20: 4H953-bN
T20 chain: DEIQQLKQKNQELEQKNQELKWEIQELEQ

T21: 4H967-bN
T21 chain: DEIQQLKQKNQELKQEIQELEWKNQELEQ

T22: 4H2576-bN
T22 chain: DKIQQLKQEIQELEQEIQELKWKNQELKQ

T23: 4H2618-bN
T23 chain: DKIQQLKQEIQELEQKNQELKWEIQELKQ

T24: 4H2729-bN
T24 chain: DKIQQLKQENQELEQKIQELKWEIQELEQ

T25: 4H3112-bN
T25 chain: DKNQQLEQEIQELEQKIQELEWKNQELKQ

T26: 4H3185-bN
T26 chain: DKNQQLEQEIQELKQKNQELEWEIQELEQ

T27: 4H3354-bN
T27 chain: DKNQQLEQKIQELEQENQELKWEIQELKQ

T28: 4H338-bN
T28 chain: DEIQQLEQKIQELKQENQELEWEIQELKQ

T29: 4H3427-bN
T29 chain: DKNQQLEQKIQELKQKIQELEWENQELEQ

T30: 4H3855-bN
T30 chain: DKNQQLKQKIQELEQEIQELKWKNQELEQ

T31: 4H454-bN
T31 chain: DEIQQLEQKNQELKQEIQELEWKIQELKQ

T32: 4H717-bN
T32 chain: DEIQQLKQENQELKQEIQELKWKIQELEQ

T33: 4H754-bN
T33 chain: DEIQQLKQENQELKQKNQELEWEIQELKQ

T34: 4H908-bN
T34 chain: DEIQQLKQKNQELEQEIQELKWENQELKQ

T35: 4H949-bN
T35 chain: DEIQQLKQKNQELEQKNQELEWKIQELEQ


What was measured:
Test in all cases: two-hybrid library CCNG1;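 further: natural log of median RNA to DNA barcode read ratio; higher means stronger binding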
[1] = target: T1, 4H2610-bN
[2] = target: T2, 4H2667-bN
[3] = target: T3, 4H2697-bN
[4] = target: T4, 4H3189-bN
[5] = target: T5, 4H331-bN
[6] = target: T6, 4H3606-bN
[7] = target: T7, 4H370-bN
[8] = target: T8, 4H3782-bN
[9] = target: T9, 4H3843-bN
[10] = target: T10, 4H4001-bN
[11] = target: T11, 4H462-bN
[12] = target: T12, 4H568-bN
[13] = target: T13, 4H607-bN
[14] = target: T14, 4H687-bN
[15] = target: T15, 4H72-bN
[16] = target: T16, 4H797-bN
[17] = target: T17, 4H883-bA
[18] = target: T18, 4H883-bN
[19] = target: T19, 4H918-bN
[20] = target: T20, 4H953-bN
[21] = target: T21, 4H967-bN
[22] = target: T22, 4H2576-bN
[23] = target: T23, 4H2618-bN
[24] = target: T24, 4H2729-bN
[25] = target: T25, 4H3112-bN
[26] = target: T26, 4H3185-bN
[27] = target: T27, 4H3354-bN
[28] = target: T28, 4H338-bN
[29] = target: T29, 4H3427-bN
[30] = target: T30, 4H3855-bN
[31] = target: T31, 4H454-bN
[32] = target: T32, 4H717-bN
[33] = target: T33, 4H754-bN
[34] = target: T34, 4H908-bN
[35] = target: T35, 4H949-bN

Binder | interaction score [1] | interaction score [2] | interaction score [3] | interaction score [4] | interaction score [5] | interaction score [6] | interaction score [7] | interaction score [8] | interaction score [9] | interaction score [10] | interaction score [11] | interaction score [12] | interaction score [13] | interaction score [14] | interaction score [15] | interaction score [16] | interaction score [18] | interaction score [19] | interaction score [20] | interaction score [21] | other results
DKIQQLKQEIQELEQKNQELEWEIQELKQ [4H2610-bN] | 0.245 | 0.011 | -0.363 | -0.821 | 0.616 | -1.38 | -2.72 | -1.11 | 0.0276 | -0.736 | 1.63 | -0.762 | -0.966 | -1.82 | -1.85 | -1.16 | -0.137 | -0.666 | -0.363 | -0.795 | interaction score [17]: 0.288
DKIQQLKQEIQELEQEIQELKWKNQELKQ [4H2576-bN] | -0.395 | 1.21 | -0.235 | 0.118 | 1.55 | -0.101 | 0.65 | -0.233 | -0.264 | 0.0889 | 0.0924 | -0.0699 | -0.239 | -0.515 | 1.58 | -2.07 | 1.47 | -1.21 | -1.09 | -1.08 | interaction score [22]: 1.12; interaction score [23]: 0.876; interaction score [24]: 1.74; interaction score [25]: -0.405; interaction score [26]: 0.148; interaction score [27]: -1.26; interaction score [28]: 0.787; interaction score [29]: -2.5; interaction score [30]: 1.04; interaction score [31]: -0.887; interaction score [32]: -0.909; interaction score [33]: 0.456; interaction score [34]: -0.577; interaction score [35]: 0.288
